Earlier results, collected in paper PMC5840170.
Where two headings read alike, the source gives them in different places.

Tests used:
[1] = target: CdvC MIT domain (Sulfolobus acidocaldarius) (UniProt F2Z6D2)
[2] = target: EAP20 (Vps25) winged helix (wH) (Homo sapiens) (UniProt Q9BRG1)
[3] = target: CdvC MIT domain (Sulfolobus acidocaldarius) (UniProt F2Z6D2); remark: listed apart in the source
[4] = target: Vps4 (Saccharomyces cerevisiae) (UniProt P52917)
[5] = target: CdvC MIT (Sulfolobus acidocaldarius) (UniProt F2Z6D2)
Sequence of CdvC MIT (Sulfolobus acidocaldarius) (F2Z6D2 8-76): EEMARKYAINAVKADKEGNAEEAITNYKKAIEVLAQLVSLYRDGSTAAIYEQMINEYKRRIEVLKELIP

[6] = target: CdvB wH domain (Sulfolobus acidocaldarius) (UniProt Q4J924)
Sequence of CdvB wH domain (Sulfolobus acidocaldarius) (Q4J924 213-261): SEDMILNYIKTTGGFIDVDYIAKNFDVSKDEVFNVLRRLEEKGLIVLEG

[7] = target: ESCRT-III subunit (Vps2) α5 helix (Saccharomyces cerevisiae) (UniProt P36108)
Sequence of ESCRT-III subunit (Vps2) α5 helix (Saccharomyces cerevisiae) (P36108 165-184): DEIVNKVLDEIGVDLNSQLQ

[8] = target: VPS4 MIT (Homo sapiens) (UniProt Q9UN37)
Sequence of VPS4 MIT (Homo sapiens) (Q9UN37 1-83): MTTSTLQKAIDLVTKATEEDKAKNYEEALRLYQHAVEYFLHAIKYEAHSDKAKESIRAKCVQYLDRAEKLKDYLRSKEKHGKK

[9] = target: CdvB wH domain (Sulfolobus acidocaldarius) (UniProt Q4J924); remark: listed apart in the source
[10] = target: CdvC MIT (Sulfolobus acidocaldarius) (UniProt F2Z6D2); remark: listed apart in the source
[11] = target: Vps4 MIT (Saccharomyces cerevisiae) (UniProt P52917)
Sequence of Vps4 MIT (Saccharomyces cerevisiae) (P52917 1-83): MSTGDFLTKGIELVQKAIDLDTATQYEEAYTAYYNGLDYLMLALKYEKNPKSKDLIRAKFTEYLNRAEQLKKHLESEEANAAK

[12] = target: EAP20 (Homo sapiens) (UniProt Q9BRG1)
Sequence of EAP20 (Homo sapiens) (Q9BRG1 whole entry, the tested form may be a part): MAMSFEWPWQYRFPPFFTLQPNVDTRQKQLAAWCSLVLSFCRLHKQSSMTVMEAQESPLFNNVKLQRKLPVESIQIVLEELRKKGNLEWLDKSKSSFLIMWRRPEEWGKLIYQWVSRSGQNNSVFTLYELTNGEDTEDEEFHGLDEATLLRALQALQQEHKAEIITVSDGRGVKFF

[13] = target: CdvC MIT domain (Sulfolobus acidocaldarius) (UniProt F2Z6D2); remark: listed apart in the source
[14] = target: VPS4 (Homo sapiens) (UniProt Q9UN37)
Sequence of VPS4 (Homo sapiens) (Q9UN37 whole entry): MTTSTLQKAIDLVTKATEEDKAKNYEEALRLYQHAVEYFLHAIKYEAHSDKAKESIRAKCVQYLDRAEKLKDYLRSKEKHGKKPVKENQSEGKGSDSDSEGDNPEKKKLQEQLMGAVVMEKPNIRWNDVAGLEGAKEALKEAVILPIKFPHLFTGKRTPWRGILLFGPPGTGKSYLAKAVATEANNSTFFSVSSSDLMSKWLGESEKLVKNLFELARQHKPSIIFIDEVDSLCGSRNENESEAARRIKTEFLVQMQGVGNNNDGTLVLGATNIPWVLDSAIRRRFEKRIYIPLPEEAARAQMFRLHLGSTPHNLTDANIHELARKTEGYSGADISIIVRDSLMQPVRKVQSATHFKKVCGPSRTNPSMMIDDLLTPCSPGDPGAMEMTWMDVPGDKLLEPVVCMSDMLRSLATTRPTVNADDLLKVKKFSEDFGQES

[15] = target: VPS4 MIT (Homo sapiens) (UniProt Q9UN37); remark: listed apart in the source
[16] = target: VPS4 MIT (Homo sapiens) (UniProt Q9UN37); remark: listed apart in the source

Sequence of CdvC MIT domain (Sulfolobus acidocaldarius) (F2Z6D2 8-76): as the sequence (F2Z6D2 8-76) above
Sequence of CHMP6 (Q96FZ7 2-201): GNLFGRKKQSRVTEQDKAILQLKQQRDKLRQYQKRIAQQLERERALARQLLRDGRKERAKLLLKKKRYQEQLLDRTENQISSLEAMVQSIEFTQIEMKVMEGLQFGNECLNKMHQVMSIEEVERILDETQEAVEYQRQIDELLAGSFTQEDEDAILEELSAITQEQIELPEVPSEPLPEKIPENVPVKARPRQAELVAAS
Sequence of CHMP6 (Vps20) (Q96FZ7 2-201): as above
Sequence of CdvA E3B peptide (Q4J923 214-238): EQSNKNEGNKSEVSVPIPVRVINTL
Sequence of Vps2 MIM1 (P36108 211-232): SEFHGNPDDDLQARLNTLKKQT
Sequence of CHMP4 (Q9H444 2-224): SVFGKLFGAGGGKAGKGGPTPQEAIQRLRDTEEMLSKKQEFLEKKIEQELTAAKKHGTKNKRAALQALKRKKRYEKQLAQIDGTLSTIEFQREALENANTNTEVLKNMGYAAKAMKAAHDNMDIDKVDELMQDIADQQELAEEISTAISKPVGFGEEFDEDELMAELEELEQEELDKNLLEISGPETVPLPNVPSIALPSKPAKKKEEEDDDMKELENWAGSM
Sequence of CdvA E3B (Q4J923 216-238): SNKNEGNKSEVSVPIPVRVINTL
Sequence of EAP20 (Vps25) winged helix (wH) (Homo sapiens) (Q9BRG1 102-176): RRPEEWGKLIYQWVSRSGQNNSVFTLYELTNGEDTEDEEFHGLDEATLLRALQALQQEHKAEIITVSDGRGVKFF
Sequence of CdvB2 C-terminus (Q4J8Y4 200-219): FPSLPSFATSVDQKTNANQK
Sequence of CdvB 177-261 (Q4J924 177-261): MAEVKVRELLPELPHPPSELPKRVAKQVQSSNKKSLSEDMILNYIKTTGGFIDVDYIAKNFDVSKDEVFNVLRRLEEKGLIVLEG
Sequence of Vps2 (P36108 whole entry): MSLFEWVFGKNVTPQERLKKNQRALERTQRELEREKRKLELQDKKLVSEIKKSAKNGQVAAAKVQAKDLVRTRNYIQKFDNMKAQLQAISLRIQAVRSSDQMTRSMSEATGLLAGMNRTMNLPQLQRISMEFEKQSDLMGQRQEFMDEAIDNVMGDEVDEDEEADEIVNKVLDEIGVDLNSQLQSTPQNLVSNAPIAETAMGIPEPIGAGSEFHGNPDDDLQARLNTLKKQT
Sequence of CdvB1 C-terminus (Q4JBG6 195-214): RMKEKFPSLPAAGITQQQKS
Sequence of Vps4 central pore loops (P52917 whole entry, looked up): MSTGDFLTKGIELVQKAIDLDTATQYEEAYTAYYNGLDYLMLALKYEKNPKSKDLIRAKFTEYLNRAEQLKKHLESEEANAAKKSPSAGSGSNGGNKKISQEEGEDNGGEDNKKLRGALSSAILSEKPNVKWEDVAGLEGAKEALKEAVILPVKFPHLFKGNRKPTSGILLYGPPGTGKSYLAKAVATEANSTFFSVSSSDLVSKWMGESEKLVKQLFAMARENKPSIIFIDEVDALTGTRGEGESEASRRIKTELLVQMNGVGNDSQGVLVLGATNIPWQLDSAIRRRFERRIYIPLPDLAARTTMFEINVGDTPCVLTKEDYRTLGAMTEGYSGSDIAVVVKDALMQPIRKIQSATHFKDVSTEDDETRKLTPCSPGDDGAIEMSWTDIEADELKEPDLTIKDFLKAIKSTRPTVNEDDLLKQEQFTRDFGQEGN
Sequence of Vps4 (Saccharomyces cerevisiae) (P52917 whole entry): as the sequence (P52917 whole entry, looked up) above

Substance: CdvB 177-261 (from UniProt Q4J924)
- Kd [1]: 30 µM

Substance: CHMP6 (Vps20) (from UniProt Q96FZ7)
- Kd [2]: 7 µM

Substance: CdvB2 C-terminus (from UniProt Q4J8Y4)
- Kd [3]: > 100 µM

Substance: Vps2 (from UniProt P36108)
- Kd [4]: 30 µM

Substance: CdvB2 C-terminus peptide (from UniProt Q4J8Y4)
- Kd [5]: > 100 µM

Substance: CdvA E3B peptide (from UniProt Q4J923)
- Kd [6]: 6 µM

Substance: Vps4 central pore loops (from UniProt P52917)
- Kd [7]: 2 µM

Substance: CHMP4 (from UniProt Q9H444)
- Kd [8]: > 100 µM

Substance: CdvA E3B (from UniProt Q4J923)
- Kd [9]: 6 µM

Substance: CdvB1 C-terminus peptide (from UniProt Q4JBG6)
- Kd [10]: > 100 µM

Substance: Vps2 MIM1 (from UniProt P36108)
- Kd [11]: 30 µM

Substance: CHMP6 (from UniProt Q96FZ7)
- Kd [12]: 7 µM

Substance: CdvB1 C-terminus (from UniProt Q4JBG6)
- Kd [13]: > 100 µM

Substance: CHMP1A MIM1 (from UniProt Q9HD42)
- Kd [14]: 4.5 µM
- Kd [15]: 4.5 µM

Substance: CHMP6 MIM2 (from UniProt Q96FZ7)
- Kd [16]: 30 µM
